# Data as given in the nanobody polyreactivity screen of Harvey et al. (2022).
# Experiment: yeast display, Sf9 membrane polyspecificity reagent, FACS + sequencing; frameworks hold sequencing errors
# Summary of the method: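 Using colony PCR, genes from sorted yeast display clones were amplified, then sequenced on MiSeq at 2 × 250 and filtered by CDR length. The clones had been stained with 10% biotinylated, detergent-solubilized Sf9 membrane reagent for 1 hour at 4 °C and sorted by FACS into low and high (top ~1%) gates on anti-HA and streptavidin fluorescence. Polyreactivity labels come from the gate of origin.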
row,Sequence,polyreactivity (PSR sort gate)
1,QVQLVESGGGLVQAGGILRLSCAASGRIFTPYTMGWYRQAPGKERELVATITWSGGSTYYADSVKGRFTISRDNAKNTVYLQMNSLKPEDTAVYYCAARPIYVWAEYDYWGQGTQVTVSS,low polyreactivity
2,QVQLVESGGGLVQAGGILRLSCAASGRIFYNYAMGWYRQAPGKERELGAAISGSGGSTYYADSVKGRFTISRDNAKNTVYLQMNSLKPEDTAVYYCSTSGPQYDSRNFDYWGQGTQVTVSS,low polyreactivity
3,QVQLVESGGGLVQAGGILRLSCAASGRIINIYAMGWYRQAPGKEREMVAAISGSGGRTSYADSVKGRFTFSRDNAKNTVYLQMNILKPEDTAVYYCAADYSYYTSFRYDYWGQGTQVTVSS,low polyreactivity
4,QVQLVESGGGLVQAGGILRLSCAASGRILVSYAMGWYRQAPGKERELVAAISRSGGSTYYADSVKGRFTISRDNAKNTVYLQMNSLKPEDTAVYYCNVYRFSRYDYWGQGTQVTVSS,high polyreactivity
5,QVQLVESGGGLVQAGGILRLSCAASGRTFYINGMGWYRQAPGKEREFVASITWRGGRTYYADSVKGRFTISRDNAKNTVYLQMNSLKPEDTAVYYCIAVGLGGRAPSRWYTHYYCGQGTQVTVSS,high polyreactivity
6,QVQLVESGGGLVQAGGILRLSCAASGRTLSKNAMGWYRQAPGKERELVATISSVGRTNYADSVKGRFTISRDNEKITVYLQMISLKPEDTAVYYCSARRFRGSYYWGQGTQVTVSS,high polyreactivity
7,QVQLVESGGGLVQAGGILRLSCAASGRTVHNYVMAWYRQAPWNERELVAAITAGVGSTYYADSVKGRFTISRDNAKNTVYFQMNSLKPEDTAVYYCAARKVWGYTYGYPYYYWGQGTQETVSS,high polyreactivity
8,QVQLVESGGGLVQAGGILRLSCAASGSIFGLYAMVWYRQAPGKERELVAAISPRGGSTYYADSVKGRFTISRDNAKNTVYLQMNILKPEDTAVYYCNRDYIRYALGHDYWGQGPQVTVSS,high polyreactivity
9,QVQLVESGGGLVQAGGILRLSCAASGSIFRQNPMGWYRKAPGKERELVAAISSGGSTYYADSVKGRFTISRDNAKNNVYLQRNSLKPEDTAVYYCAAYHSFVWGDDYWGQGTQVTVSS,low polyreactivity
10,QVQLVESGGGLVQAGGILRLSCAASGSIFRVYAMGWYRQAPGKERELVAGITSTGTRTYYADSVKGRFTISRDNAKNPVSLQKNSLKPEDTAVYYCAARDTYRKAYYYWGHGTQVTVSS,high polyreactivity
11,QVQLVESGGGLVQAGGILRLSCAASGSIFVKYTMGWYRQAPGKERELVAAISFRGGSTYYADSVKGRFTISRDNAKNTVYLQMNSLKPEDTAVYYCNADGGWWPEYYWGQGTQVTVSS,low polyreactivity
12,QVQLVESGGGLVQAGGILRLSCAASGSIIYVNAMGWYRQAPGKERELVAAISVRGGRTYYADSVKGRFTISRDNAKNSVYLQMISLKPEDTAVYDCAAGWYYYARPRVYNAREYYYWGQGTQVNVSS,high polyreactivity
13,QVQLVESGGGLVQAGGILRLSCAASGSIVSYYDMGWYRQAPGKERELVAAITYTGGSTYYADSVKGRFTISRDNAKNTVYLQMNSLKPEDTEVYYCAAQWTIYPLFNSWGQGNQVTVSS,low polyreactivity
14,QVQLVESGGGLVQAGGILRLSCAASGSNFGYYVMGWYRQAPGKERELVAGISTGGSTYYADSVKGRFTISRDNAKNTVYLQMNSLKPEDTAVYYCAADYTLSYWGFVYWGQGTQVTVSS,low polyreactivity
15,QVQLVESGGGLVQAGGILRLSCAASGSTFESNTMGGYRQAPGKERELVAAISYSGGRTYYADSVKGRFTISRDNAKNTVYLQMNSLKPEDTAVYYCAARWSVSYHYWGQGTQVTVSS,high polyreactivity
16,QVQLVESGGGLVQAGGILRLSCAASGSTFVPNTMAWYRQAPGKERELVAAITYSGGSTYYADSVKGRFTISRDNAKNTVYLQMNSLKPEDTAVYYCAAEGTTWYYDMDYWGQGTQVTVSS,low polyreactivity
17,QVQLVESGGGLVQAGGILRLSCAASGSTLGYYAMGWYRQAPGKERELVAAISWSGGRTYYADSVKGRFTISRDNAKNTVYLQMNSLKQEDTAFYYCNALNRTHYTGSDFYSWGQGTQVTVSS,high polyreactivity
18,QVQLVESGGGLVQAGGILRLSCAASGYTFYFYAMGWYRQAPGKERELVAAITGGGTTSYADSVKGRFTISRDNAKNTVYLQMNSLKPEDTAVYYCNVLFADKSDYWGQGTQVTVSS,low polyreactivity
19,QVQLVESGGGLVQAGGILRLSCASSGSTFPTNAMGWYTQAPGKERELVAAISSSGGRTYYADSVKGRFTISRDNAKNTVDLQMNSLKPEDTAVYSCAAVWWRAYAVRMYYWGQGTQVTVSS,high polyreactivity
20,QVQLVESGGGLVQAGGILRLSCDASGFTFGYYTMGWYRQAHGKEREFVAAITGGSGSTYYADSVKGRFTISRDNAKNTVYLQMNSLKPEDTAVYYCAASIWRGLTPLLIGFDYWGQGTQVTVSS,high polyreactivity
21,QVQLVESGGGLVQAGGILRLSCSASGRIFQFYAMGWYRQAPGKERELVAGISWSGGSTNYADSVKGRFTISRDNAKNTVYLQMNSLKPEDSAVYYCNVDLYNWRGDSTGYDYWGQGTQVTVSS,low polyreactivity
22,QVQLVESGGGLVQAGGILRLSWAASGRTFRYYAMGWYRQAPGKDREFVAAISWSGGSTYYADSVKGRFTISRDNAKNTVYLQMNSLKPEDTAVFYCAAESIYTWGIRGAYWGQGTQVTVSS,high polyreactivity
